Among the data in publication doi:10.1101/2024.03.04.583282v1 are Km and kcat values, retold here.

Common to all, as to conditions: acCoA co-substrate, 50 mM Tris-HCl pH 8.5, 150 mM NaCl, 25 °C
Substrate in series [1]: NCCCC[C@H](N)C(=O)O
As to the kind of experiment: purified protein.

Substrate in series [2]: NCCCN
In words: purified protein.

Substrate in series [3]: NCCCCN
As to the kind of experiment: DTNB acetyltransferase assay. The series is classed as biochemical, Arabidopsis thaliana.

Substrate in series [4]: NCCCNCCCCNCCCN
In words: DTNB acetyltransferase assay. The series is classed as biochemical, Arabidopsis thaliana.

Substrate in series [5]: NCCSC[C@H](N)C(=O)O
In words: DTNB acetyltransferase assay. The class given is biochemical, Arabidopsis thaliana.

Substrate in series [6]: NCCC[C@H](N)C(=O)O
In words: purified protein.

B1: NATA2Δ (Arabidopsis thaliana) (protein)
chain: MFSRIRLATPSDVPFIHKLIHQMAVFERLTHLFSATESGLASTLFTSRPFQSFTVFLLEVSRSPFPATITSSPSPDFTPFFKTHNLDLPIDDPESYNFSPDMLNDVVVAGFVLFFPNYSSFLSKPGFYIEDIFVREPYRRKGFGSMLLTAVAKQAVKMGYGRVEWVVLDWNVNAIKFYEQMGAQILQEWRVCRLTGDALEAFDQVNI
B1: the Km (commonly the substrate concentration at which the rate is half of its maximum) was 9480 ± 2530 µM in series [1]; 370 ± 70 µM in series [2]; 2290 ± 480 µM in series [3]; 1620 ± 350 µM in series [4]; 330 ± 80 µM in series [5]. Also, the turnover number (kcat) – broadly, the maximal rate divided by the concentration of active sites – was determined as 0.45 ± 0.10 s⁻¹ in series [1]; 1.46 ± 0.07 s⁻¹ in series [2]; 1.04 ± 0.07 s⁻¹ in series [3]; 1.49 ± 0.08 s⁻¹ in series [4]; 2.20 ± 0.10 s⁻¹ in series [5].

B2: NATA1Δ (Arabidopsis thaliana) (protein)
chain: TGHRMFSRIRLATPTDVPFIHKLIHQMAVFERLTHLFVATESGLASTLFNSRPFQAVTVFLLEISPSPFPTTHDASSPDFTPFLETHKVDLPIEDPDREKFLPDKLNDVVVAGFVLFFPNYPSFLAKQGFYIEDIFMREPYRRKGFGKLLLTAVAKQAVKLGVGRVEWIVIDWNVNAINFYEQMGAQVFKEWRLCRLTGDALQAIDKLNI
For the protein B2, the Km in series [6] worked out at 4040 ± 820 µM; in series [1], 12700 ± 3520 µM; in series [2], 440 ± 120 µM; in series [3], 1900 ± 420 µM; in series [4], 2260 ± 500 µM; in series [5], 540 ± 130 µM. Also, the kcat stood at 0.64 ± 0.05 s⁻¹ in series [6]; 0.58 ± 0.09 s⁻¹ in series [1]; 1.59 ± 0.08 s⁻¹ in series [2]; 1.11 ± 0.12 s⁻¹ in series [3]; 1.56 ± 0.10 s⁻¹ in series [4]; 2.04 ± 0.20 s⁻¹ in series [5].
